According to US20200317768A1 (published 2020):
Where a chain is given by its changes, count along the chain named. Names may count otherwise.

T1: cynomolgus monkey FcγRIIa3 extracellular domain, C-terminal His-tag (cynomolgus monkey)
T1 construct: also called cyno FcγRIIa3; FcgRIIa3
T1 chain: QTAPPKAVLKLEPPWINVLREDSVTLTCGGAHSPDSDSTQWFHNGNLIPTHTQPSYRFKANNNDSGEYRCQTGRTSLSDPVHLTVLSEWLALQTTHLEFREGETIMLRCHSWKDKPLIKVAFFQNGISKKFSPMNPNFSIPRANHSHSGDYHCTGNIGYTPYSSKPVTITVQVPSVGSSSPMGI

T2: cynomolgus monkey FcγRIIIaS extracellular domain, C-terminal His-tag (cynomolgus monkey, UniProt Q8SPW2 21-206 at identity 1.00))
T2 construct: also called cyno FcγRIIIaS; FcgRIIIaS
T2 chain: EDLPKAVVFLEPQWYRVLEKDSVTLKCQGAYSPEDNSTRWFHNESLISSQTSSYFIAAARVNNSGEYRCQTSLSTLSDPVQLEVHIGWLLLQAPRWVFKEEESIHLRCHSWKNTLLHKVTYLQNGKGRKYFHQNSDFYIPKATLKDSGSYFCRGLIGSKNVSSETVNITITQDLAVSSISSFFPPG

T3: cynomolgus monkey FcγRIIb extracellular domain, C-terminal His-tag (cynomolgus monkey)
T3 construct: also called cyno FcγRIIb; cynoFcγRIIb
T3 chain: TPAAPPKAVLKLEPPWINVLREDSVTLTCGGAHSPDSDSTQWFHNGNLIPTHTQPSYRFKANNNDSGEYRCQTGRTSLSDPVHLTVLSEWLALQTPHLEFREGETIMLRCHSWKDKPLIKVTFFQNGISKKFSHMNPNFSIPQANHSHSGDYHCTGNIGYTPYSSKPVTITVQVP

T4: cynomolgus monkey FcγRIIa1 extracellular domain, C-terminal His-tag (cynomolgus monkey)
T4 construct: also called cyno FcγRIIa1; FcgRIIa1
T4 chain: T1 chain with T95P, A121T, S128A, P133H, N135D

T5: cynomolgus monkey FcγRIIa2 extracellular domain, C-terminal His-tag (cynomolgus monkey)
T5 construct: also called cyno FcγRIIa2; FcgRIIa2
T5 chain: T1 chain with I127K, K130N, P133H, R142Q

T6: cynomolgus monkey FcγRIIa3 extracellular domain, C-terminal His-tag (cynomolgus monkey)
T6 construct: also called cyno FcγRIIa3; cynoFcgRIIa3; not shown: His-tag added to C-terminus
T6 chain: T1 chain

T7: cynomolgus monkey FcγRIIb extracellular domain, C-terminal His-tag (cynomolgus monkey)
T7 construct: also called cyno FcγRIIb; cynoFcγRIIb; not shown: His-tag added to C-terminus
T7 chain: T3 chain

T8: human FcγRIIaR extracellular domain, C-terminal His-tag (human, UniProt P12318 34-217)
T8 construct: also called human FcγRIIa (type R); FcgRIIaR; not shown: His-tag added to C-terminus
T8 chain: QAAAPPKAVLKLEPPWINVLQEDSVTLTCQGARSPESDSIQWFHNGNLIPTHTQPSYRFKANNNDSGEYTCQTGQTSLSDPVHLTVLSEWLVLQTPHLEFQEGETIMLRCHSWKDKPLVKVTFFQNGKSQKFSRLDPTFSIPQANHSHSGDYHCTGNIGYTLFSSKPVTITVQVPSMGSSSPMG

T9: human FcγRIIaH extracellular domain, C-terminal His-tag (human, UniProt P12318 34-217)
T9 construct: also called human FcγRIIa (type H); FcgRIIaH; not shown: His-tag added to C-terminus
T9 sequence: T8 chain with R134H

T10: human FcγRIIb extracellular domain, C-terminal His-tag (human, UniProt P31994 43-217)
T10 construct: also called humanFcgRIIb; not shown: His-tag added to C-terminus
T10 sequence: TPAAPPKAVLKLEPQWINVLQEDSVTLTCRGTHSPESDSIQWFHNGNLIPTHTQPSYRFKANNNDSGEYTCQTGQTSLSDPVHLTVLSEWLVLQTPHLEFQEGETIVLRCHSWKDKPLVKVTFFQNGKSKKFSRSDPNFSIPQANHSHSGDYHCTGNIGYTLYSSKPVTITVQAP

T11: cynomolgus monkey FcγRIIa2 extracellular domain, C-terminal His-tag (cynomolgus monkey)
T11 construct: also called cyno FcγRIIa2; cynoFcgRIIa2; not shown: His-tag added to C-terminus
T11 chain: T1 chain with I127K, K130N, P133H, R142Q

T12: cynomolgus monkey FcγRIIa1 extracellular domain, C-terminal His-tag (cynomolgus monkey)
T12 construct: also called cyno FcγRIIa1; cynoFcgRIIa1; not shown: His-tag added to C-terminus
T12 chain: T1 chain with T95P, A121T, S128A, P133H, N135D

B1: M103205H795-SG174/M103202L889-SK1 (antibody, human IgG1, kappa)
heavy: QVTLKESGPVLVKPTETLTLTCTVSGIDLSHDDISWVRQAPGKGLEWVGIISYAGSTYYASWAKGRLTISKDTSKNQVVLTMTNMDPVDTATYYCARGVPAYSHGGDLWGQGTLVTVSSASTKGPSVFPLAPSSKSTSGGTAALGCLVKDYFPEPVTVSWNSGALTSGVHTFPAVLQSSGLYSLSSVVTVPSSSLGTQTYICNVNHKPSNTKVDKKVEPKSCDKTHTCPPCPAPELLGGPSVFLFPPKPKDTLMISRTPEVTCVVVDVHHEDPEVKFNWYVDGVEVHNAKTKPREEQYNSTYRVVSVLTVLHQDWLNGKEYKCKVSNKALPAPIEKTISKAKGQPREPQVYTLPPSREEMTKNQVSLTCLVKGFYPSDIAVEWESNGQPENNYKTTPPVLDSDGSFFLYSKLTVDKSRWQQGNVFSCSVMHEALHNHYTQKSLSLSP
light: DIVMTQSPATLSLSPGERATLSCTSSQSVYHANWLSWFQQKPGQPPKLLIYWASTLAYGVPSRFSGSGSGTDFTLTISSLQPEDAATYYCAGGYGGGRYAFGQGTKVEIKRTVAAPSVFIFPPSDEQLKSGTASVVCLLNNFYPREAKVQWKVDNALQSGNSQESVTEQDSKDSTYSLSSTLTLSKADYEKHKVYACEVTHQGLSSPVTKSFNRGEC
notes: also called S267H
B2: M103205H795-SG176/M103202L889-SK1 (antibody, human IgG1, kappa)
heavy: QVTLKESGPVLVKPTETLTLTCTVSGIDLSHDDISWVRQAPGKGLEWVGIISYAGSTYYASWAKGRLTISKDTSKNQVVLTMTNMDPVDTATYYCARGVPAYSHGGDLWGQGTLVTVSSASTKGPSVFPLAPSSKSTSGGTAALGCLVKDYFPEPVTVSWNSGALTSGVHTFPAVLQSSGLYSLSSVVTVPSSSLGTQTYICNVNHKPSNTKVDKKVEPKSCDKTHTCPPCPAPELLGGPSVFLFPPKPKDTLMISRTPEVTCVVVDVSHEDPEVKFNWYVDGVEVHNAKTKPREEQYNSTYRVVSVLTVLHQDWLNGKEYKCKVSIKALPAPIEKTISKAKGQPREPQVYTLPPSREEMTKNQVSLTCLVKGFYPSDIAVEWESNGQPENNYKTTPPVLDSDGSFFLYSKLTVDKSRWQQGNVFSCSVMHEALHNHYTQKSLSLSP
light: B1 light
notes: also called N325I
B3: M103205H795-SG179/M103202L889-SK1 (antibody, human IgG1, kappa)
heavy: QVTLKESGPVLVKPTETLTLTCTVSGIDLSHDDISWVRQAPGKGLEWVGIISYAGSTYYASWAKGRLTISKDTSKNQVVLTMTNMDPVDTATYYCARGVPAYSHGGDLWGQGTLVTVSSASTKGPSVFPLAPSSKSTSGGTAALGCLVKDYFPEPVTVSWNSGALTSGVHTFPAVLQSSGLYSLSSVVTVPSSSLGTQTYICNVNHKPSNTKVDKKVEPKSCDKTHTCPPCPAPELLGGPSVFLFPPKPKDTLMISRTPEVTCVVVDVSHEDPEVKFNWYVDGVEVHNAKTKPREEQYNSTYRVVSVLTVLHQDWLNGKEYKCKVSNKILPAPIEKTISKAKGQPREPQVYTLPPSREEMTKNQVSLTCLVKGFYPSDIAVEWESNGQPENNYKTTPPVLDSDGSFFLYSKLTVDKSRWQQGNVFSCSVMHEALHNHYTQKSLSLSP
light: B1 light
notes: also called A327I
B4: M103205H795-SG178/M103202L889-SK1 (antibody, human IgG1, kappa)
heavy: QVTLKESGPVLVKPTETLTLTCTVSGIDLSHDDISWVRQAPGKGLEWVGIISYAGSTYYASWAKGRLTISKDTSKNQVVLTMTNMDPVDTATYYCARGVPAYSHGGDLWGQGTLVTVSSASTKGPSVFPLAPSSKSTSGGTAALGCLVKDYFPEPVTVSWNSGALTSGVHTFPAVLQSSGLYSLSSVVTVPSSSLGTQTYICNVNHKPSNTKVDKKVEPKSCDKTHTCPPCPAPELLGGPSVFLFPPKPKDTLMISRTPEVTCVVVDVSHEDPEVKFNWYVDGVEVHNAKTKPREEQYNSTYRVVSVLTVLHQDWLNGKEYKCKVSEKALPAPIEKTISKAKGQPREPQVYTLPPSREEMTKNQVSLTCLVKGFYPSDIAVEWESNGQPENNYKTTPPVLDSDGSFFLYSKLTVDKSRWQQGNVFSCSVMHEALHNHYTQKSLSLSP
light: B1 light
notes: also called N325E
B5: M103205H795-SG177/M103202L889-SK1 (antibody, human IgG1, kappa)
heavy: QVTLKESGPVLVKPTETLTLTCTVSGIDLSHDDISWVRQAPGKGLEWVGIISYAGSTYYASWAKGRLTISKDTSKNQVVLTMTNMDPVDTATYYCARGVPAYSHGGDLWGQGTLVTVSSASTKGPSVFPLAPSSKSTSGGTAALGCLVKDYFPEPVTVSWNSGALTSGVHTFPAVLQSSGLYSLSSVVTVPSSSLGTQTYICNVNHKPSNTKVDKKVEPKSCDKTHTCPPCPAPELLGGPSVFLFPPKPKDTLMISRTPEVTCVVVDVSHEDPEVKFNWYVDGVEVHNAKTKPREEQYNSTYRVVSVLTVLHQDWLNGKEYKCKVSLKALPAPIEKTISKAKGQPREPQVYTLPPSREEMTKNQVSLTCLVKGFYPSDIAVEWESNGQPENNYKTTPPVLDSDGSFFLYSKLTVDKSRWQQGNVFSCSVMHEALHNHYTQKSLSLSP
light: B1 light
notes: also called N325L
B6: M103205H795-MY534 / M103202L889-SK1 (antibody, human IgG1, kappa)
heavy: QVTLKESGPVLVKPTETLTLTCTVSGIDLSHDDISWVRQAPGKGLEWVGIISYAGSTYYASWAKGRLTISKDTSKNQVVLTMTNMDPVDTATYYCARGVPAYSHGGDLWGQGTLVTVSSASTKGPSVFPLAPSSKSTSGGTAALGCLVKDYFPEPVTVSWNSGALTSGVHTFPAVLQSSGLYSLSSVVTVPSSSLGTQTYICNVNHKPSNTKVDKKVEPKSCDKTHTCPPCPAPELLTGPVVFLFPPKPKDTLMISRTPEVTCVVVDVSDEDPEVKFNWYVDGVEVHNAKTKPREELYNSTYRVVSVLTVLHQDWLNGKEYKCKVSNKALPKPIEKTISKAKGQPREPQVYTLPPSREEMTKNQVSLTCLVKGFYPSDIAVEWESNGQPENNYKTTPPVLDSDGSFFLYSKLTVDKSRWQQGNVFSCSVMHEALHNHYTQKSLSLSP
light: B1 light
B7: M103205H795-MY535 / M103202L889-SK1 (antibody, human IgG1, kappa)
heavy: B6 heavy with A233G, L236W, V241S, L297Q
light: B1 light
B8: M103205H795-MY533 / M103202L889-SK1 (antibody, human IgG1, kappa)
heavy: B6 heavy with L236W
light: B1 light

Target: T1, cynomolgus monkey FcγRIIa3 …
Assay: SPR; FcgR bound per captured antibody, normalized to SG1
Description: (§1) The kinetic analysis of interactions between these antibodies and FcγR was carried out using BIACORE® T200 or BIACORE® 4000 (GE Healthcare). HBS-EP+ (GE Healthcare) was used as the running buffer, and the measurement temperature was set to 25° C. A chip produced by immobilizing Protein A. Protein A/G or mouse anti-human IgG kappa light chain (BD Biosciences) onto a Series S Sensor Chip CM4 or CM5 (GE Healthcare) by the amine-coupling method was used. […] After the measurement, the antibody captured on the chip was washed off by allowing reaction with 10 mM glycine-HCl, pH1.5 and 25 mM NaOH so that the chip was regenerated and used repeatedly. The sensorgrams obtained as measurement results were analyzed by the 1:1 Langmuir binding model using the BIACORE® Evaluation Software to calculate the binding rate constant ka (L/mol/s) and dissociation rate constant kd (l/s), and the dissociation constant KD (mol/L) was calculated from these values. […] Regarding such interactions, KD values were calculated using the following 1:1 binding model described in BIACORE® T100 Software Handbook BR1006-48 Edition AE.
(§2) The value of the amount of FcγR binding was obtained by dividing the amount of FcγR bound by the amount of each antibody captured.

| amount of FcgR binding (SG1 = 100) | Binder |
| --- | --- |
| 20 SG1 = 100 | B1 |
| 19 SG1 = 100 | B2 |
| 28 SG1 = 100 | B3 |
| 29 SG1 = 100 | B4 |
| 25 SG1 = 100 | B5 |

Target: T2, cynomolgus monkey FcγRIIIaS …
Assay: as above
Description: as §1, §2

| amount of FcgR binding (SG1 = 100) | Binder |
| --- | --- |
| 15 SG1 = 100 | B1 |
| 20 SG1 = 100 | B2 |
| 48 SG1 = 100 | B3 |
| 36 SG1 = 100 | B4 |
| 21 SG1 = 100 | B5 |

Target: T3, cynomolgus monkey FcγRIIb extracellular …
Assay: as above
Description: as §1, §2

| amount of FcgR binding (SG1 = 100) | Binder |
| --- | --- |
| 11 SG1 = 100 | B1 |
| 16 SG1 = 100 | B2 |
| 19 SG1 = 100 | B3 |
| 26 SG1 = 100 | B4 |
| 18 SG1 = 100 | B5 |

Target: T4, cynomolgus monkey FcγRIIa1 …
Assay: as above
Description: as §1, §2

| amount of FcgR binding (SG1 = 100) | Binder |
| --- | --- |
| 13 SG1 = 100 | B1 |
| 14 SG1 = 100 | B2 |
| 19 SG1 = 100 | B3 |
| 22 SG1 = 100 | B4 |
| 15 SG1 = 100 | B5 |

Target: T5, cynomolgus monkey FcγRIIa2 …
Assay: as above
Description: as §1, §2

| amount of FcgR binding (SG1 = 100) | Binder |
| --- | --- |
| 16 SG1 = 100 | B1 |
| 15 SG1 = 100 | B2 |
| 17 SG1 = 100 | B3 |
| 21 SG1 = 100 | B4 |
| 15 SG1 = 100 | B5 |

Target: T6, cynomolgus monkey FcγRIIa3 …
Assay: SPR (BIACORE); KD of SG1 / KD of variant;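 also: relative to parent M103205H795-SG1 carrying the SG1 human heavy chain constant region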
Description: as §1
(§3) The behavior of interacting molecules according to the 1:1 binding model on BIACORE® can be described by Equation 1: Req=C·R max/(KD+C)+RI, wherein, Req is a plot of steady-state binding levels to analyte concentration. C is concentration, RI is bulk refractive index contribution in the sample, and Rmax is analyte binding capacity of the surface. When this equation is rearranged, KD can be expressed as Equation 2: KD=C·Rmax/(Req−RI)−C. KD can be calculated by substituting the values of Rmax, RI, and C into Equation 1 or Equation 2. From the current measurement conditions, RI=0, C=2 μmol/L can be used.

| KD fold (SG1 = 1) | Binder |
| --- | --- |
| 14.2 fold | B6 |
| 5.7 fold | B7 |
| 14.2 fold | B8 |

The binders below were run against T13, cynomolgus monkey FcγRIIIaS extracellular domain, C-terminal His-tag (cynomolgus monkey, UniProt A3RFZ7 21-206 (rhesus entry)) (assay: SPR (BIACORE); KD of SG1 / KD of variant;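 also: relative to parent M103205H795-SG1 carrying the SG1 human heavy chain constant region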).
T13 construct: also called cyno FcγRIIIaS; cynoFcγRIIIaS; not shown: His-tag added to C-terminus
Description: as §1, §3

| KD fold (SG1 = 1) | Binder |
| --- | --- |
| 0.22 fold | B6 |
| 0.17 fold | B7 |
| 0.33 fold | B8 |

Target: T7, cynomolgus monkey FcγRIIb extracellular …
Assay: SPR (BIACORE); KD of SG1 / KD of variant;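 also: relative to parent M103205H795-SG1 carrying the SG1 human heavy chain constant region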
Description: as §1, §3

| KD fold (SG1 = 1) | Binder |
| --- | --- |
| 4.3 fold | B6 |
| 4.4 fold | B7 |
| 7.2 fold | B8 |

Target: T8, human FcγRIIaR extracellular domain, …
Assay: SPR (BIACORE); KD of SG1 / KD of variant;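 also: relative to parent M103205H795-SG1 carrying the SG1 human heavy chain constant region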
Description: as §1, §3

| KD fold (SG1 = 1) | Binder |
| --- | --- |
| 3.8 fold | B6 |
| 1.7 fold | B7 |
| 5.5 fold | B8 |

Each binder was assayed against T14, human FcγRIIIaV extracellular domain, C-terminal His-tag (human, UniProt P08637 17-208) (assay: SPR (BIACORE); KD of SG1 / KD of variant).
T14 construct: also called FcgRIIIaV; not shown: His-tag added to C-terminus
T14 sequence (P08637 17-208 F176V): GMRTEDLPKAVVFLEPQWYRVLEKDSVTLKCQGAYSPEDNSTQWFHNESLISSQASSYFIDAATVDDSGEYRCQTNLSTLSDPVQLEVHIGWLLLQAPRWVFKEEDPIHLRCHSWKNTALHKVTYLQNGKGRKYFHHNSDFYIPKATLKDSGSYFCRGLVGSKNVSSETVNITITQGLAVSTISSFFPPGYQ
Description: as §1, §3

| KD fold (SG1 = 1) | Binder |
| --- | --- |
| 0.19 fold | B6 |
| 0.16 fold | B7 |
| 0.45 fold | B8 |

What follows are binders tested against T9, human FcγRIIaH extracellular domain, … (assay: SPR (BIACORE); KD of SG1 / KD of variant).
Description: as §1, §3

| KD fold (SG1 = 1) | Binder |
| --- | --- |
| 4.1 fold | B6 |
| 1.5 fold | B7 |
| 3.3 fold | B8 |

The binders below were run against T10, human FcγRIIb extracellular domain, … (assay: SPR (BIACORE); KD of SG1 / KD of variant).
Description: as §1, §3

| KD fold (SG1 = 1) | Binder |
| --- | --- |
| 3.8 fold | B6 |
| 2.4 fold | B7 |
| 4.5 fold | B8 |

Target: T11, cynomolgus monkey FcγRIIa2 …
Assay: SPR (BIACORE); KD of SG1 / KD of variant
Description: as §1, §3

| KD fold (SG1 = 1) | Binder |
| --- | --- |
| 3.9 fold | B6 |
| 3.6 fold | B7 |
| 7 fold | B8 |

Target: T12, cynomolgus monkey FcγRIIa1 …
Assay: SPR (BIACORE); KD of SG1 / KD of variant
Description: as §1, §3

| KD fold (SG1 = 1) | Binder |
| --- | --- |
| 2.5 fold | B6 |
| 2.1 fold | B7 |
| 4 fold | B8 |
